These results are taken from the DeepSol protein solubility set.

A short description of this data set: soluble on expression in E. coli; label from the status in PepcDB or PDB records.
With “MLPNNQWQIPINNGLTHQENMAAHAAVMKLRVHDLQSIISQLSLRKPRPQKSEHQKVVVESLRDPHHARQIYQMVISLIFSSLQASNFPNGNYEMQKRPATTSQVRSHPYVLPSRSGASNHLVNHHYQQQQQQQPQPHNLLHQQMMASHHSHLQQQHHPSTVRWLTPELLEEQLRGSMRYGAPAAAAATNAPLHSSFPNHGRSSQQSLQKSEKSNRPKKMYADNFEPLPLPFYDVISVLLKPVELHSSDSPTLKQTKQLQFPFLLTAEHISKISYRADVTPLPRYELQLRFFNLTEPVQGPQKDDFPLNCYARVDDSVVQLPNVIPTNKTNAEPKRPSRPVNITSNMNRYKKEHTVAVEWLADKRVWAAGVYFVHRVNSDILFKRLNQNVSRHRSLEVTKQEVIKKLSGGEDDIAMDRLNISLLDPLCKTRMTTPSRCQDCTHLQCFDLLSYLMMNEKKPTWQCPVCSSNCPYDRLIVDDYFLDMLAKVDKNTTEVELKEDGSYDVIKEEAFCISDDDDDDVVPATVNGTASCSSTNGNGLANEAAKKKPADDDIITLSDDDDEELNRGIMNSLNDSFSPGRHTASAELAAQKTPPQQKKKTKDDDIEIITLDDTPPRPVAASANLPMRQMSQQNQMPVGSSPSGMASTQMGMNEGASKTIRDALNKIGEQSANSSTQSSPLVQLHHTTHPLNFAQSSYMNPSSGSQTPTSQYGYSPMINQAPHFQMQNGLIGRNNQMVHMQQHHLQQQQQQQQSPQIMSPSFYAQQQMSNGGAFAYYPPQYPQQQYRQN”, the “soluble on expression in E. coli” value is listed as “not soluble”. With “VIIDTSALLAYFDAAEPDHAAVSECIDSSADALVVSPYVVAELDYLVATRVGVDAELAVLRELAGGAWELANCGAAEIEQAARIVTKYQDQRIGIADAANVVLADRYRTRTILTLDRRHFSALRPIGGGRFTVIP” the entry was “not soluble”; with “MCLILFALDAHPRYRLVLAANRDEFYARPTAPAAFWDDAPQVLAGRDLTAGGTWCGVTRDGRIAAVTNYRDPGAHRVGARSRGELVAGFLGGDEAPSRWLEHLQRNGHDYNGFNLIFGDGNGLHYHSNRGAAASPLSPGIHGLSNHLLDTPWPKVARGRDALARLLATADEPAVDDLFAILANRTPAPDHLLPDTGVSLDWERLLSPLFITSPTYGTRSSTVILVDRSGQCTFVERSYNGAADHPRTVEYRFEVITLEHHHHHH”, “not soluble”.

For the sequence “MGSDKIHHHHHHMRISYGVENLRSLTRTPEIELRPITILIGRNSAGKSTYLRSFALMRQSLEVKSSAPILWYGDYVDFGDFDAAVSNGDKDSDITFNFRVEDLDTRDVEDEIYYYNEYAYRSSRRKISYQAVSLSISLGEQLRRTVRRRIALEIPEDRISAVASFEKDGRECSDFQINGQRLSDLIPNVAVYFRASDIFDRPVLVRQVRKDGKSLRRVVGAASEIGSAISQRLRQQVDKRISEENLAIEARRILNHPRLDPTSLQQLRLRAGNRSFRKLYDRWLKDEASTTLAEIDHLCALNHALITVGRVSSVLKGFFRNTTYLGPARARSERYYRSQELEVSEISPDGQNLPMFLASLSTTEQGRFSDWVEEAFGFGVLVERKEGHVSIKLRQRTISVNVADTGYGVSQILPVLAQIWWATQIPRNYTRQMRHGLRPITMEQPELHLHPAHQAKLADVFQSAIERSNASGPEAVLLIETHSEALINRLGELIEYGKIAANDVQVVIFSARGEGEELNTEISTSTFDDNGALRDWPYGFFNY”, the “soluble on expression in E. coli” value is “not soluble”.

For the sequence “FCNAFTPVKAKEVKALILDFLHTNKITLQREIESSFITSAIIAHTGIDAFSISLLLDKNK”, the “soluble on expression in E. coli” value is listed as “not soluble”. “WYNFTKRAVKIVLIPVSWFMKAERFAKFENNISEKIDSFYEESVRMTKDWR”: the “soluble on expression in E. coli” value was “not soluble”. With “MNNQFIQRVIFDWNRIDNDSYLKGIEAFKGIEKLDFNKPITFFVGENGSGKSTLLEALAVAHGFNPEGGTKNYVFSTHDTHSELCDAIRIAKGYRKEKWGYFLRAESFYNVATQEEEYADITHPSAKYHEKSHGESFLALAQNNMNPNGLYLFDEPEAALSPQRQLTLLMQIYRCAKEGAQFIIVTHSPILLGIPDADIYCFDNGCIHLCEYEDTESYQVTEMFINNRQMLLDRLLTD” the entry was “not soluble”; with “YHSTDGDTILVGKNNKQNDYLTNKKARKNHLWFHTKDIPGSHVVILNESPSETTIKEAAMLAGYFSKAGSSAQIPVDYTEIRHVHK”, “not soluble”.

For “MEIIYPPLVEEGLKYYLETTQQSLDKSTFYRSMVERGIITETGLPTQQAIENGLVKDYYEDQGLSFDDFLRIYPIFEEYDEELFQCIDGYWEIPVDMKENLASQLESGELTFEDAQQIQAYLEDR”, the “soluble on expression in E. coli” value is on record as “not soluble”. With “MGHHHHHHSHMEKIKIIVASDSIGETAELVARAGISQFNPKQCKNELLRYPYIESFEDVDEVIQVAKDTNAIIVYTLIKPEMKQYMSEKVAEFQLKSVDIMGPLMDLLSASVEEKPYNEPGIVHRLDDAYFKKIDAIEFAVKYDDGKDPKGLPKADIVLLGISRTSKTPLSQYLAHKSYKVMNVPIVPEVTPPDGLYDIDPKKCIALKISEEKLNRIRKERLKQLGLGDTARYATEARIQEELNYFEEIVSEIGCPVIDVSQKAIEETANDIIHYIEQNKSK” the entry was “soluble”. With “GPLGSHMSQAVQTNGTQPLSKTWELSLYELQRTPQEAITDGLEIVVSPRSLHSELMCPICLDMLKNTMTTKECLHRFCADCIITALRSGNKECPTCRKKLVSKRSLRPDPNFDALISKIYPSRDEYEAHQERVLARINKHNNQQALSHSIEEGLKIQAMNRLQRG” the entry was “soluble”; with “MSLGKKELIGFQVGVRESTQSWHELLVEAKTRGLKIAPEIAVGDGALGFWKALDEVFPATRHQRCWVHKTANILNKVAVSVQASMKKDLREVYLASNRASAEVAIDVFAEKYGAKYDKAVECLTKDRDAMLAFYEFPAEHWDHLRTTNPIESVFATVRHRTVRTKGSLSSTTAKLMVFKLLCAASKTWRRLKGTNQLPKVSAGVRFENGIEEGHHHHHH”, “not soluble”. With “MLRFTNCSCKTFVKSSYKLNIRRMNSSFRTETDAFGEIHVPADKYWGAQTQRSFQNFKIGGARERMPLPLVHAFGVLKKSAAIVNESLGGLDPKISKAIQQAADEVASGKLDDHFPLVVFQTGSGTQSNMNANEVISNRAIEILGGKIGSKQVHPNNHCNQSQSSNDTFPTVMHIAASLQIQNELIPELTNLKNALEAKSKEFDHIVKIGRTHLQDATPLTLGQEFSGYVQQVENGIQRVAHSLKTLSFLAQGGTAVGTGLNTKPGFDVKIAEQISKETGLKFQTAPNRFEALAAHDAIVECSGALNTLACSLFKIAQDIRYLGSGPRCGYHELMLPENEPGSSIMPGKVNPTQNEALTQVCVQVMGNNAAITFAGSQGQFELNVFKPVMIANLLNSIRLITDAAYSFRVHCVEGIKANEPRIHELLTKSLMLVTALNPKIGYDAASKVAKNAHKKGITLKESALELGVLTEKEFDEWVVPEHMLGPK” the entry was “soluble”. With “MGSDKIHHHHHHMYTDADRSREVVPEKDGHDKKWRDEFGRDYGRIIHSASFRRQQGKTQVFPSRESDFFRNRLTHSLEVAQIAQGIAERINYDYDKDLGGKIDPRLCATAGLVHDIGHPPFGHNGESALDKAMQRYGGFEGNAQTLRILTRLEKKLRYAEPLAGDDRAGLNLCHRTIAATLKYDNEIPAIRKAADGFVKGYYGSEKIIVDRVKASVLNGYVLGAEEKFCTIECSIMDLADDIAYSVYDLEDCFKVGFLSPAEMLASDDALLSAVAKRASKPMKRTVTINEIQAVFMEIFSEIIEQPAEDADSPLDGIVIEDDIAQQAKRDESLLTFAEAYRTSKVMSEDGYKRTEFSSELVHQFISGVELKAHKECPSLSQIYLPEKLMLRKEVLKQYTFVAAIYAPRVKLGEYRGYDLVTDIFKALMGDRGDLLMPADVRGRIRKAPNVSVKAREVCDFVAGMTDRYAMEFWARLNSDAAESMFKPI”, the “soluble on expression in E. coli” value is recorded as “not soluble”. With “MGSDKIHHHHHHMIQVPASFDIQGHRGCRGLLPENTIAAFTKALLLGVTTLEFDLVISKDNRVVVSHDTFFHHEITMMVDGEDVTEANEKNFNLYAMNYADIKEIDVGMKTHPRFKSQKKVPAVKPLFRELIETAEKLSAKIQYNGEIKSTVEGDNIDHPNIALFCDLVVAEIKKAHITDRFTLQSFDVRALEYMHSQYPDIKLSYLVETKGTLKKQLEKLSFTPAVYSPDVTLVSKKDIDAAHKLGMRVIPWTVNTKEEIETLISLGVDGIITDYPDLFFEK” the entry was “not soluble”.
